From patent US20250042987A1 (BEIJING DONGFANG BIOTECH, published 2025)
Residue numbers refer to the chain shown, from its start.

T1: mouse TSLP-His (Sino Biological, product code 51005-M08H) (mouse, UniProt Q9JIE6 20-140)
T1 construct: Bought reagent; also called TSLP (Mouse); not shown: His tag
T1 sequence (looked up): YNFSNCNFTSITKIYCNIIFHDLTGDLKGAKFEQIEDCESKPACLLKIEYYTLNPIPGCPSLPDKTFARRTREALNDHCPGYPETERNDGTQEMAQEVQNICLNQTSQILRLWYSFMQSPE

B1: humanized anti-TSLP monoclonal antibody HA-II (antibody, human IgG1, kappa, L234A L235A, V domains shown)
VH: QVQLVQSGAEVKKPGASVKVSCKASGYTFTSYWMHWVRQAPGQGLEWIGLIDPSDSDTTYNQKFKGRATLTVDTSTSTAYMELSSLRSEDTAVYYCSRSLDGYFDHWGQGTLVTVSS
VL: DIVMTQSPSSLSASVGDRVTITCRASENIYSYLAWYQQKPGKAPKLLVYNARTLAEGVPSRFSGSGSGTDFTLTISSLQPEDFATYYCQHHYGTPWTFGGGTKVEIKR
B2: humanized anti-TSLP monoclonal antibody HA-I (antibody, human IgG1, kappa, L234A L235A, V domains shown)
VH: B1 VH
VL: B1 VL with A43S
notes: also called HA-1; EB070
B3: humanized anti-TSLP monoclonal antibody HA-III (antibody, human IgG1, kappa, L234A L235A)
heavy: not shown
light: DIQMTQSPSSLSASVGDRVTITCRASENIYSYLAWYQQKPGKAPKLLVYNARTLAEGVPSRFSGSGSGTDFTLTISSLQPEDFATYYCQHHYGTPWTFGGGTKVEIKRTVAAPSVFIFPPSDEQLKSGTASVVCLLNNFYPREAKVQWKVDNALQSGNSQESVTEQDSKDSTYSLSSTLTLSKADYEKHKVYACEVTHQGLSSPVTKSFNRGEC
B4: humanized anti-TSLP monoclonal antibody HA-IV (antibody, human IgG1, kappa, L234A L235A)
heavy: not shown
light: B3 light with Q3V

What follows are binders tested against T1, mouse TSLP-His (Sino Biological, …) (assay: ELISA, mouse TSLP-His coated).
Description: It was washed with 300 μl/well PBST for five times, 1% BSA-PBST was added, and it was sealed at 37° C. for 1 h. […] It was washed with 300 μl/well PBST for five times, then Goat AntiHuman IgG-HRP diluted with 1% BSA-PBST 1:5000 was added and incubated at 37° C. for 1 h. A TMB color kit was used for color development at 100 μl/well, it was color-developed at the room temperature for 5 min, then terminated with 2 M H₂SO₄. An ELISA plate was read at 450 nm/630 nm, and the corresponding EC50 value was calculated.
B1: no binding (tested: 16 µg/ml (highest concentration)).
B2: no binding (tested: 16 µg/ml (highest concentration)).
B3: no binding (tested: 16 µg/ml (highest concentration)).
B4: no binding (tested: 16 µg/ml (highest concentration)).
